Experimental data: article PMC10786891, “Massively parallel profiling of RNA-targeting CRISPR-Cas13d”
Positions count from the first letter of the chain named. Numbers in names are those of the source.

T1: EsCas13d, nuclease-dead (Eubacterium siraeum, UniProt B0MS50, R295A;H300A;R849A;H854A)
T1 sequence: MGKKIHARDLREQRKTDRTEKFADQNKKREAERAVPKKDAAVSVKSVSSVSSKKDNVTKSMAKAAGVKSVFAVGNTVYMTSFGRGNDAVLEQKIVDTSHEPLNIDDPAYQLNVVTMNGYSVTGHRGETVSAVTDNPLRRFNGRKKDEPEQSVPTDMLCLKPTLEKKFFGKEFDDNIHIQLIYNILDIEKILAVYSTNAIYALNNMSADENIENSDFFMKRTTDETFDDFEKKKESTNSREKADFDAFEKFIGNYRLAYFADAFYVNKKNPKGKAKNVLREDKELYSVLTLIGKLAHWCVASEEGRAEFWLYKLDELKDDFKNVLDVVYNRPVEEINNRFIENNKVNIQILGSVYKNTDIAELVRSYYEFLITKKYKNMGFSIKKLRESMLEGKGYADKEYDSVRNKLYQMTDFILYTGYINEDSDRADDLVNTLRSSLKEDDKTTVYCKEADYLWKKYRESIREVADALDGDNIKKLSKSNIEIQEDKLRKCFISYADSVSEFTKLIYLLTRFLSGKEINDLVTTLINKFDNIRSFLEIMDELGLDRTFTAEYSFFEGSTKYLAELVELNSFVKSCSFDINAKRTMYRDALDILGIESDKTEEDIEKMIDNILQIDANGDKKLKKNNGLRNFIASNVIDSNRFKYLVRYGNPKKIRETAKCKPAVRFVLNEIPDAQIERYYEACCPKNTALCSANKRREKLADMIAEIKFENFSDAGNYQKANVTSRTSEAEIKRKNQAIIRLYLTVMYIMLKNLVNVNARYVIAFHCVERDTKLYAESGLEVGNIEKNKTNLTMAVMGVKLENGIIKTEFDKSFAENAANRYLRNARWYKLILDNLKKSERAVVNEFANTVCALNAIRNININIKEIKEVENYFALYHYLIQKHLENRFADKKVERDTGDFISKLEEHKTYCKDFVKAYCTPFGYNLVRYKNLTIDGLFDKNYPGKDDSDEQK

B1: target 1 insC 3' of 20,insG 3' of 3 (mixed)
RNA 1: CACCCGUGCAAAAAUGCAGGGGUCUAAAACUGAGCGGAUAACCUCUCUAUGG
RNA 2: GGGAAUGGAUCCACAUCUACGAAUUCGUACCACUAGAGAGGUUAUCCGCUGCACCGAGAUCGGAAGAGCACACGU
B2: target 1 C6G,G15A (mixed)
RNA 1: B1 RNA 1
RNA 2: GGGAAUGGAUCCACAUCUACGAAUUCGUACCAUAGAAAGGUUAUCGGCUCACCGAGAUCGGAAGAGCACACGU
B3: target 1 complement block 5-8 (mixed)
RNA 1: B1 RNA 1
RNA 2: B2 RNA 2 with A37G, U44A, C45G, G47C
B4: target 1 U8A,C21A (mixed)
RNA 1: B1 RNA 1
RNA 2: B2 RNA 2 with C31A, A37G, U44A, G46C
B5: target 1 insC 3' of 22,insU 3' of 5 (mixed)
RNA 1: B1 RNA 1
RNA 2: B1 RNA 2 with A32C, C33A, C49U, U50C, G51U
B6: target 1 insG 3' of 10,insA 3' of 8 (mixed)
RNA 1: B1 RNA 1
RNA 2: GGGAAUGGAUCCACAUCUACGAAUUCGUACCAUAGAGAGGUUGAUACCGCUCACCGAGAUCGGAAGAGCACACGU
B7: target 1 complement block 6-13 (mixed)
RNA 1: B1 RNA 1
RNA 2: B2 RNA 2 with A37G, G39C, G40C, U41A, U42A, A43U, U44A, C45G
B8: target 1 insA 3' of 13,insG 3' of 1 (mixed)
RNA 1: B1 RNA 1
RNA 2: GGGAAUGGAUCCACAUCUACGAAUUCGUACCAUAGAGAGAGUUAUCCGCUCAGCCGAGAUCGGAAGAGCACACGU
B9: target 1 insC 3' of 11,insG 3' of 3 (mixed)
RNA 1: B1 RNA 1
RNA 2: B8 RNA 2 with A40G, G41U, U42C, C51G, A52C, G53A
B10: target 1 insU 3' of 22,insG 3' of 8 (mixed)
RNA 1: B1 RNA 1
RNA 2: B1 RNA 2 with C31U, A32C, C33A, C46G, G48C, C49G, U50C, G51U
B11: target 1 insG 3' of 22 (mixed)
RNA 1: B1 RNA 1
RNA 2: GGGAAUGGAUCCACAUCUACGAAUUCGUACGCAUAGAGAGGUUAUCCGCUCACCGAGAUCGGAAGAGCACACGU
B12: target 1 U3A,C22A (mixed)
RNA 1: B1 RNA 1
RNA 2: B2 RNA 2 with C30A, A37G, G46C, U49A
B13: target 1 insU 3' of 15,insC 3' of 5 (mixed)
RNA 1: B1 RNA 1
RNA 2: B8 RNA 2 with A38U, G39A, A40G, U50C, C51U, A52C, G53A
B14: target 1 insG 3' of 8,insU 3' of 1 (mixed)
RNA 1: B1 RNA 1
RNA 2: B8 RNA 2 with A40G, G41U, U43A, A44U, U45G, G53U
B15: target 1 insC 3' of 22,insA 3' of 4 (mixed)
RNA 1: B1 RNA 1
RNA 2: B1 RNA 2 with A32C, C33A, U50A, G51U
B16: target 1 C4G,G17U (mixed)
RNA 1: B1 RNA 1
RNA 2: B2 RNA 2 with G35U, A37G, G46C, C48G
B17: target 1 insU 3' of 20,insA 3' of 13 (mixed)
RNA 1: B1 RNA 1
RNA 2: GGGAAUGGAUCCACAUCUACGAAUUCGUACCAUUAGAGAGAGUUAUCCGCUCACCGAGAUCGGAAGAGCACACGU
B18: target 1 G13A,G15A (mixed)
RNA 1: B1 RNA 1
RNA 2: B2 RNA 2 with G39A, G46C
B19: target 1 insG 3' of 11,insG 3' of 11 (mixed)
RNA 1: B1 RNA 1
RNA 2: B6 RNA 2 with U42G, A44U, U45A, A46U
B20: target 1 insC 3' of 9,insG 3' of 1 (mixed)
RNA 1: B1 RNA 1
RNA 2: B8 RNA 2 with A40G, G41U, U43A, A44C
B21: target 1 insA 3' of 15,insG 3' of 4 (mixed)
RNA 1: B1 RNA 1
RNA 2: B8 RNA 2 with G39A, A40G, U50G, C51U, A52C, G53A
B22: target 1 insC 3' of 20,insA 3' of 13 (mixed)
RNA 1: B1 RNA 1
RNA 2: B17 RNA 2 with U33C
B23: target 1 insC 3' of 22,insA 3' of 7 (mixed)
RNA 1: B1 RNA 1
RNA 2: B1 RNA 2 with A32C, C33A, C47A, G48C, C49G, U50C, G51U
B24: target 1 insA 3' of 13,insU 3' of 1 (mixed)
RNA 1: B1 RNA 1
RNA 2: B8 RNA 2 with G53U
B25: target 1 G5A,G12C (mixed)
RNA 1: B1 RNA 1
RNA 2: B2 RNA 2 with A37G, G40C, G46C, G47A
B26: target 1 insU 3' of 2 (mixed)
RNA 1: B1 RNA 1
RNA 2: GGGAAUGGAUCCACAUCUACGAAUUCGUACCAUAGAGAGGUUAUCCGCUCUACCGAGAUCGGAAGAGCACACGU
B27: target 1 insU 3' of 18,insU 3' of 9 (mixed)
RNA 1: B1 RNA 1
RNA 2: B17 RNA 2 with U34A, A35U, A41G, G42U, U44A, A45U
B28: target 1 insC 3' of 10,insU 3' of 6 (mixed)
RNA 1: B1 RNA 1
RNA 2: B6 RNA 2 with G43C, A46C, C48U
B29: target 1 insU 3' of 14,insU 3' of 4 (mixed)
RNA 1: B1 RNA 1
RNA 2: B8 RNA 2 with G39U, A40G, C51U, A52C, G53A
B30: target 1 insG 3' of 8,insG 3' of 1 (mixed)
RNA 1: B1 RNA 1
RNA 2: B8 RNA 2 with A40G, G41U, U43A, A44U, U45G
B31: target 1 insA 3' of 21,insA 3' of 6 (mixed)
RNA 1: B1 RNA 1
RNA 2: B1 RNA 2 with C33A, G48A, C49G, U50C, G51U
B32: target 1 insC 3' of 20,insG 3' of 14 (mixed)
RNA 1: B1 RNA 1
RNA 2: B17 RNA 2 with U33C, A41G
B33: target 1 U10A,A18U (mixed)
RNA 1: B1 RNA 1
RNA 2: B2 RNA 2 with A34U, A37G, U42A, G46C
B34: target 1 insA 3' of 8 (mixed)
RNA 1: B1 RNA 1
RNA 2: B26 RNA 2 with C45A, G47C, C48G, U49C, C50U, U51C

Each binder was assayed against T1, EsCas13d, nuclease-dead (assay: crRNA (strand 1, pre-loaded); Mg2+; 40 mM Tris-HCl pH 7.5, 150 mM NaCl, 6 mM MgCl2, 1 mM DTT, 0.1% Tween-20, 0.2 mg/ml BSA; 25 C; 10 min per concentration, then washed). Conditions: tags: His6-TwinStrep-SUMO cleaved; N-terminal SNAP kept (SNAP-Surface 488); label: 3' end held by stalled T7 RNA polymerase.

Binder | Kd [nM]
B1 | 8.3 ± 0.5
B2 | 14.4 ± 0.8
B3 | 14.7 ± 0.8
B4 | 55 ± 9
B5 | 24.3 ± 3.1
B6 | 21.6 ± 1
B7 | 92 ± 15
B8 | 3.08 ± 0.21
B9 | 24.9 ± 1.4
B10 | 49 ± 4
B11 | 31 ± 2.8
B12 | 60 ± 17
B13 | 16.9 ± 2.2
B14 | 12.6 ± 0.9
B15 | 15.9 ± 3.1
B16 | 39 ± 12
B17 | 8.4 ± 1.2

Binder | Kd [nM]
B18 | 10.3 ± 0.8
B19 | 86 ± 26
B20 | 12.2 ± 1.2
B21 | 6.4 ± 0.6
B22 | 4.7 ± 0.4
B23 | 17.6 ± 2.5
B24 | 3.62 ± 0.33
B25 | 13.5 ± 0.5
B26 | 9.7 ± 0.8
B27 | 49 ± 8
B28 | 46 ± 5
B29 | 63 ± 13
B30 | 13.4 ± 0.7
B31 | 22.1 ± 2.3
B32 | 10.1 ± 0.8
B33 | 43 ± 4
B34 | 15.7 ± 1
